Measured values reported in patent US20040234530.

Target: C1-esterase inhibitor (human plasma protease C1 inhibitor), purified or in human serum (UniProt P05155)
Sequence (P05155 23-500): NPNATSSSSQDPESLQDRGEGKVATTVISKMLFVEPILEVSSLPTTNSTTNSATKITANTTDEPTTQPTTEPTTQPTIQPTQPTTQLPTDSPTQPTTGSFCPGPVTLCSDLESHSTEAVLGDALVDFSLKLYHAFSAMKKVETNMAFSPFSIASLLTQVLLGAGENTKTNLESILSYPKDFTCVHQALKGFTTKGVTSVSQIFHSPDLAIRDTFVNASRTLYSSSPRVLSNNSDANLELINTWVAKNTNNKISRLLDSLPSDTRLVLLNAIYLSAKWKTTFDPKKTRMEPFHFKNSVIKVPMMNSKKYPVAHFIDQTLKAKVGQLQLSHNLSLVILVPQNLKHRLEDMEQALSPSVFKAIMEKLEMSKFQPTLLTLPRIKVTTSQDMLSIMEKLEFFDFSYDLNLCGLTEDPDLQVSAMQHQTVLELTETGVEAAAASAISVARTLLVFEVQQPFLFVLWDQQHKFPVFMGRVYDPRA

StcE E435D-His (from pTEG1 in BL21(DE3), strain WAM2726)
cleavage of C1-INH (immunoblot): While StcE-His is able to degrade C1-INH, we observed no such cleavage with the mutant protein

purified kallikrein (Calbiochem)
kallikrein activity (cleavage of chromogenic substrate S-2302): ranging from 88.8% (±2.6% SEM) to 10.3% (±1.3% SEM) activity
